Experimental data from US20110243954A1 (published 2011).

B1: 12A2 sv1-AAA-12A2 sv1-9GS-59C2-9GS-59C2 (vWF-0056) (VHH)
chain: DVQLVESGGGLVQPGGSLRLSCAASGRTFSYNPMGWFRQAPGKGRELVAAISRTGGSTYYPESVEGRFTISRDNAKRTVYLQMNSLRAEDTAVYYCAAAGVRAEQGRVRTLPSEYTFWGQGTQVTVSSAAAEVQLVESGGGLVQPGGSLRLSCAASGRTFSYNPMGWFRQAPGKGRELVAAISRTGGSTYYPESVEGRFTISRDNAKRTVYLQMNSLRAEDTAVYYCAAAGVRAEQGRVRTLPSEYTFWGQGTQVTVSSGGGGSGGGSRDWDFDVFGGGTPVGGGGGGSGGGSRDWDFDVFGGGTPVGG
notes: bivalent anti-vWF Nanobody with a C-terminal tandem repeat of 59C2
B2: 12A2 sv1-AAA-12A2 sv1-9GS-59C2 (vWF-0055) (VHH)
chain: DVQLVESGGGLVQPGGSLRLSCAASGRTFSYNPMGWFRQAPGKGRELVAAISRTGGSTYYPESVEGRFTISRDNAKRTVYLQMNSLRAEDTAVYYCAAAGVRAEQGRVRTLPSEYTFWGQGTQVTVSSAAAEVQLVESGGGLVQPGGSLRLSCAASGRTFSYNPMGWFRQAPGKGRELVAAISRTGGSTYYPESVEGRFTISRDNAKRTVYLQMNSLRAEDTAVYYCAAAGVRAEQGRVRTLPSEYTFWGQGTQVTVSSGGGGSGGGSRDWDFDVFGGGTPVGG
notes: bivalent anti-vWF Nanobody with one C-terminal 59C2 peptide

target: T1, human serum albumin (human, UniProt P02768 25-609); assay: solution binding competition ELISA: phage pre-incubated with 1 µM HSA, unbound phage captured on coated HSA; signal with competitor / without
T1 construct: HSA used in ELISA and SPR was bought (Sigma); also called HSA
Method: (§1) A competition ELISA was performed to determine the relative binding affinity for the selected phage clones. 96-well Nunc Maxisorp plates were coated with 2 μg/ml HSA in coating buffer at 4° C. Plates were blocked with SuperblockT20 (Pierce) for 1 h at room temperature. The microtiter plates were washed with wash buffer (PBS, 0.05% Tween 20).
Unbound phage was captured by transferring 100 μl of the well mixture to the HSA coated Maxisorp plate and incubating at room temperature for 30 minutes. The plate with captured phage was washed with PBS-0.05% Tween 20 five times. Bound phages were detected with anti-M13 and goat-anti mouse IRDye conjugate. The amount of IRDye bound was measured on Odyssey (LI-COR Biosciences). The ratio of phage binding was calculated by the following equation: fluorescence signal of well with competitor/fluorescence signal of well with no competitor (Table III).

Binder	Ratio 1 µM/0 µM HSA [ratio]
AALYDDYDVFGGGTPVGG (also called 01C7; PMP26A3 (in the text)) [PMP56A3]	0.47
AAFYDDYDVFGGGTPAGG (also called 01G7; PMP54H5 (in the text)) [PMP56H5]	0.43
AALYDDYDVFGGGTPAGG [01B3]	0.42

target: T2, von Willebrand factor (human, UniProt P04275 764-2813); assay: inhibition ELISA of ristocetin-induced binding of vWF to platelets
T2 construct: also called vWF; VWF
Method: After 3 times washing with phosphate buffered saline (PBS), wells were incubated for 1 hour at room temperature (RT) with formalin fixed human platelets (Dade Behring, Newark, Del.) which were diluted two-fold in PBS or—as a blank—with PBS. Wells were washed 3 times with PBS and blocked for 2 hours at RT with PBS containing 4% bovine serum albumin (BSA, Sigma). A dilution series of compound was prepared in human plasma and was preincubated for 30 min at RT with 1.5 mg/mL ristocetin (abp, NJ, USA) after which the mixture was transferred to the coated wells. […] For the analysis of the data, the absorbance values were corrected using the absorbance of the respective blanks.

Binder	binding result
B1	binds
B2	binds

target: T1, human serum albumin; assay: phage competition ELISA: signal of well with 2 µM HSA competitor / signal of well with no competitor
Method: as §1
After respectively three and four selection rounds, monoclonal phage were screened for binding on HSA, in the manner described in Example 2. […] The ratio of phage binding was calculated by the following equation: fluorescence signal of well with 2 μM competitor/fluorescence signal of well with no competitor (Table VI).

Binder	Ratio 2 µM/0 µM HSA [ratio]
AARDWDFDVFGGGTPVGG (also called EXP59C2) [59C2]	0.91
AARSWDFDVFGGGTPVGG [59H12]	0.87
AARYWDFDVFGGGTPVGG [59F2]	0.69
AARYWDYDVFGGGTPVGG (also called EXP56E4) [PMP56E4]	0.82
